We go through 1 substance from publication PMC5900708.

The assay deals with human DOT1L^CC2 (second coiled-coil domain of DOT1L) (human) (UniProt Q8TEK3). The assay can be described thus: SEC. (SEC sorts molecules by how far they enter the pores of the column.)

As to “human DOT1L^CC2 (second coiled-coil domain of DOT1L) (from UniProt Q8TEK3 1-1537) (domain or fragment)”, the stoichiometry N (commonly the number of molecules, sites or subunits per partner or assembly) came out at 2.
